First the molecules themselves.
B1: TPR 5TU (parent)
chain: GGAUCUUCUCGAUCUAACAAAAAAGACAAAUCUGCCACAAAGCUUGAGAGCAUCUUCGGAUGCAGAGGCGGCAGCCUUCGGUGGCGCGAUAGCGCCAACGUUCUCAACUAUGACACGCAAAACGCGUGCUCCGUUGAAUGGAGUUUAUCAUG

This sample holds only a part of the variants without activity. Where only a bound is given, the exact number is not on record here.

This series covers variants of B1. Description: polymerase ribozyme fitness, log enrichment relative to wild type (log ratio); higher = more active; in vitro selection for triplet polymerase activity. Summed up:
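Both subunits of a heterodimeric triplet polymerase ribozyme were given their own mutant library, built by PCR and transcribed. Each library was annealed with a biotinylated primer, the partner subunit and triplets, incubated frozen at −7 °C, and its extended constructs gel-excised, captured on streptavidin beads and amplified by RT-PCR, all in one round done in triplicate. Fitness is the logarithm of genotype enrichment relative to wild-type enrichment, with replicates averaged by inverse-variance weighting. That logarithm is base 2, and Illumina-sequenced genotypes needed ≥10 input reads and ≥1 read per output.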
For the variant GGAUCUUCUCGAUCUAACACAAAAGACAAAUCUGCCACAAAGCUUGAGGGCAUCUUCGGAUGCAGAGGCGGCAGCCUUCGAUGGCGGGAUAGCGCCAACGUUCGCAACUAUGACACGCAAAACGCGUGCUCCGUUGACUGGAGUUUAUCAUG, the “polymerase ribozyme fitness (log ratio)” value was at most -4.2.

For GGAUCUUCUCGAUCUAACACAUAAGACAAAUCUGCCACAAAGCUUGAGAGUAUCUUCGGAUGCAGAGGCGGCAGCCUUCGGUGGCGCGAUAGCGCCAACGUUCUCAACUAUGACACGCAAAACGCGUGCUCCGUUGAAUGGAGUUUAUCAUG, the “polymerase ribozyme fitness (log ratio)” value was -0.386.

Regarding GGAUCUUCUCGAUCUAACACAAAAGACUAAUCUGCCACAAAGCUUGACAGCAUCUUCGGAUGCAGAGGCAGCAGCCUUCGGUGGCGGGAUAGCGCCAACGUUCUCAACUAUGACACGCAGAACGCGUGCUCCGUCGAAUGGAGUUUAUCAUG, the “polymerase ribozyme fitness (log ratio)” value is at most -4.2.

GGAUCUUCUCGAUCUAACACAAAAGACAACUCUGCCACAAAGCUUGAGAGCAUCUUCGGAUGCAGAGGCGGCAGCCUUCGGUGGCGCGAUAGCGCCAACCUGCUCAACUAUGACACGCAAAACGCGUGCUCCGUUGAAUGGAUUGUAUCAUG: the “polymerase ribozyme fitness (log ratio)” value was at most -4.2.

As for GGAUCUUCUCGAUCUAACACAAAAGACAAAUCUGUCACAAAGCUUGAGAGCAUCUUCGGAUGCAGAGGCGGCAGCCUUCGGUGGCGCGAUAGCGCCGACGUUCUCAACUAUGACACGCAAAACGCGUGCUCCGUUGAAUGGAGUUUAUCAUG, the “polymerase ribozyme fitness (log ratio)” value is -0.284.

For the variant GGAUCUUCUCGAUCUAACACAAAAGACAAAUCUGCCACCAAGCUUGAGAGCAUCUUCGGAUGCAGAGGCGGCAGCCUUGGGUGGCGCGAUAGCGCCAACGUUCUCGACUAUGACACGCAAAACUCGUGCUCCGUUGAAUGGAGUUUAUCAUG, the “polymerase ribozyme fitness (log ratio)” value was at most -4.2.

With GGAUCUUCUCGAUCUAACACAAAGGACAAAUCUGCCACAAAGCUUGAGAGCAUCUUCGGAUGCAGAGGCGGCAGCCUUCGGUGGCGCGAUAGCGCCAACGUUCUCAACUAUGACACGCAAAACGCGUGCUCCGUUGAAUGGAGUUUAUCAUG, the “polymerase ribozyme fitness (log ratio)” value is -4.02.

As for GGAUCUUCUCGAUCUAACACAAAAGACAAAUAUGCCACAAAGCUUGAGAGCGUCUUCGGAUGCAGAGGCGGCAGCCUUCGGUGGCGCGAUUGCACCAAUGUUCUCAACUAUGACACGCAAAACGCGUGCUCCGUUGAAUGGAGUUUUUCAUU, the “polymerase ribozyme fitness (log ratio)” value was -3.97.

With GGAUCUUCUCGAUCUAACACAAAAGACAAAUCUGCCACACAGCUUGAGAGCAUCUACGGAUGCAGAGGCGGCAGCCUUCGGUGGCGCGAUAUCGCCAACGUUCUCAACUAUGACACGCAAAACGCGUGCUCCGUUGAAUGGAGUUUAUCAUG, the “polymerase ribozyme fitness (log ratio)” value was -0.349.

Take GGAUCUUCUCGAUCUAACACAAAAGACAAAUCUGCAACAAAGCUUGAGUGCAUCUGCGGAUGCAGAGGCGGCAGCCUUCGGUGGCGCGAUUGCGCCAACGUUCUCAACUAUGACACGCAAAACGCGUGCUCCGUUGAAUGGAGUUCAUCAUG: the “polymerase ribozyme fitness (log ratio)” value is at most -4.2.

As for GGAUCUUCUCGAUCUAACACAAUAGACAUAUCUGCCACAAAGCUUGAGAGCAUCUUCGGAUGCAGAGGCGGCAGCCUUCGGUGGCGCGAUAACGCCAACGUUCUCAACUUUGACACGCAAAACGCGUGCUCCGUUGAAGGGGGGUUAUCAUG, the “polymerase ribozyme fitness (log ratio)” value was at most -4.2.

Take GGAUCUUCUCGAUCUAACACAAAAGACAAAUCUGCCACAAAGCUUGAGAGCAUCUUCGGGUGCAGAGGCGGCAGCCUUCGGUGGCGCGAUAGCGCCAACGUUCUCAACUAUGACACGCAAAACGCGUGCUCCGUUGAAUGGAGUUUAUCAUG: the “polymerase ribozyme fitness (log ratio)” value was -0.605.

Consider GGAUCUUCUCGAUCUAACACAAAAGACAAAUCUGCCACAAAGCUUGAGAGCAUCUUCGGAUGCAGAGGCGGCCGCCUUCGAUGGCGCGACACCGCCAACGUUCGCAACUAUGACACGCAAAACGCGUGCUCCGUUGAAUGGAGUUUAUCAUG, for which the “polymerase ribozyme fitness (log ratio)” value was at most -4.2.

Regarding GGAUCUUCUCGAUCUAACACAAAAGACAAAUCUGCCACAAAGCUUGAGAGCAUCUUCGGCUGCAGAGGCGGCAGCCUUCGGUGGAGCGAUAGCGCCAACGUUCUCAACUAUGACACGCAAAACGCGUGCUCCGUUGAAUGGAGUUUAUCAUG, the “polymerase ribozyme fitness (log ratio)” value was -2.66.

Consider GGAUCUUCUCGAUCUAACACAAACGACAAAUCUGCCACAAAGCUUGAGAGAAUCUUCGGAUGCAGAGGCGGCACCCUUCGGUGGCGCGAUAGCUCCAACGUUCUCAACUAUGACACGCAAUACGCGUGCUCCGUGGAAUGGAGUUUACCAUG, for which the “polymerase ribozyme fitness (log ratio)” value was at most -4.2.

As for GGAUCUUCUCGAUCUAACACAAAAGACAAAUCUGCCACAAAGCUUGAGCGCCUCUUUGGAUGCAGAGGCGGCAGCAUUCGGUGGCGCAAUAGCGCCAACGUUCUCGACUAUGACACGCAAAACGCCUGCUCCGUUGAAUGGAGUGUAUCAUG, the “polymerase ribozyme fitness (log ratio)” value was at most -4.2.

For the variant GGAUCUUCUCGAUCUAACACAUAAGACAAAUCUGCCACAAAGCUUGAGAGCAUCUUCAGAUGCAGAGGCGGCAGCCCUCGGUGGCGCGAUAGCGCGAACGUUCUCAACUAUGACACGCAAAACGCGUGCUCCGUUGAAUGGAGUUUAUCAUG, the “polymerase ribozyme fitness (log ratio)” value is at most -4.2.

On to GGAUCUUCUCGAUCUAACACAAAAGACAAAUCUGCCACAAAGUAUGAGAGCAUCGUCGGAUGCAGAGGCGGCAGCCUUUGGUGGCGCGAUAGCGCCAACGUUCUCAACUAUGACACGCAAAACGCGUGCUCCGUUGAAUGAAGUUUAUCAUG, for which the “polymerase ribozyme fitness (log ratio)” value is at most -4.2.

With GGAUCUUCUCGAUCUAACACAAAAGACAAAUCUGCCACAAAGCUUGUGAGUAUCUUCGGAUGCAGAGGCGGCAGCCUUCGGUGGCGCGAUAGCGCCAACGUUCUUAACUAUGACACGCAAAACGCGUGCUCCGUUGAAUGGAGAUUAUCAUG, the “polymerase ribozyme fitness (log ratio)” value was -2.59.

For the origin of these results see the RNAGym collection of RNA variant scans (doi:10.1073/pnas.2313332121).
